In PMC11145656 (Structure (London, England : 1993), 2023):

Tests used:
Assay in all cases: BLI
[1] = molecular target: SARS-CoV-1 RBD (SARS-CoV-1)
[2] = molecular target: SARSr-CoV Rs4874-GCN S protein (Bat SARS-like coronavirus isolate Rs4874, strain)
[3] = molecular target: SARSr-CoV Rs4231-T4 S protein (bat SARS-related CoV Rs4231)

Binder | binding result [1] | binding result [2] | binding result [3]
Ab246 IgG1 (antibody, V domains shown) VH: QVQLQESGPGLVKPSETLSLTCSVSGDSIGTYYWSWIRQSPEKGLEWIGYIHHSGKTNYNPSLKSRVTMSVDTSKNQFSLKLTSVTAADTAVYYCARSPIGYCSSTKCYIDKPFDSWGQGTLVTVSS VL: QAVLTQPSSLSASPGASASLTCTLRGGINVVNQRLYWYQQKPGSPPRFLLKYKSDSDNFLGSGVPSRFSGSKDASANAGILLISEVQSEDEADYYCMMWHSSAYVFGGGTKLTVL | binds | binds | 
CR3022 IgG1 (antibody, V domains shown) VH: EVQLVQSGTEVKKPGESLKISCKGSGYGFITYWIGWVRQMPGKGLEWMGIIYPGDSETRYSPSFQGQVTISADKSINTAYLQWSSLKASDTAIYYCAGGSGISTPMDVWGQGTTVTVSS VL: not shown |  | binds | binds
